# Assay results taken from a protein production outcome set (Wang et al. 2014).
# Assay: label from the status in PepcDB records
row,Sequence,protein production
1,MAAERKTKLSKNLLRMKFMQRGLDSETKKQLEEEEKKIISEEHWYLDLPELKEKESFIIEEQSFLLCEDLLYGRMSFRGFNPEVEKLMLQMNAKHKAEEVEDETVELDVSDEEMARRYETLVGTIGKKFARKRDHANYEEDENGDITPIKAKKMFLKPQD,not failed
2,MAAFTGTTDKCKACDKTVYVMDLMTLEGMPYHKSCFRCSHCNGTLVICNYSSMDGVLYCKTHFEQLFKESGNFSKNFQTAGKTEKSNDAAPNRLSSFFSGTQDKCAACKKTVYPLEKMTMEGESYHKTCFRCAHSGCPLTHSSYAALDGVLYCKVHFSQLFLEKGNYNHVLQAAANHRRSTAEEDKTEPKEDEANPTEEETSDAAAEEHES,failed
3,MAAGFSSKTTRDSPHLSEIRVVLLGNNDCDRRRVVRSVLGDLTGESVGQCTVYDGEESRRRIRVVDAPGWNSNTPQSKLRESIERSAMLCAPGPHALLLVLPVRRNEDMSAGDIKSGMKLVEMLSERAWRHTIVVFACDEGTGGFSCSQKAKIVLEKCKGRGFYLQRQGGIAQLFTQIEDLVRDNGEDDVFLPQAYHELFRRKTEGLLHRRGNLRKKPVHLSKSEAGALGVEPFSVIVIAVLAAVLVSLSFGAEYGVFGGCAGLLLGSILPF,failed
4,MAAGKRDYYEVLGISKNASSQDIKRAFRKLAMQYHPDRHKAENETTQKQNEEKFKEVNEAYEVLSDEEKRKLYDQFGHEGLNASGFHEAGFNPFDIFNSVFGEGFSFGMDGDSPFDFIFNRSKKRQQQIVVPYNLDIALVIEINFFEMTNGCNKTIKYERKVSCHSCNGFGAEGGESGLDLCKDCNGNGFVIKNQRSIFGTIQSQVLCSTCNGQGKQIKVKCKTCRSNKYTVTNQIKEINIPAGMYSGEALVDESGGNEFKGHYGKLIIQVNVLASKIFKRSDNNVIANVLVDPMVAIVGGVIELPTLEGIKEFNIRPGTKSGEQIVIPNGGIKFSKSFKRKAGDLIIIISYARPCEYTNLELKKLREFIKPNQEVKQYLNTLKNEYKT,failed
5,MAAGKTHDKITVIMTPFIASFFLFINMIFLEDLGSSLAFTILGVSIYMFGGYMFSGDLDIKSREFRRWGYLKFIWIPYQKLFEHRSVFTHGFILGPIIRILYVSIIPITISSLLYSFSIINISTPEMLKLVFNFILKNKILFGNMALALFLGSGLHTITDMIYSYFKRKFSYKKRKSSKKYSRSKRPSRRAA,failed
6,MAAKKDYYAILGVPRNATQEEIKRAYKRLARQYHPDVNKSPEAEEKFKEINEAYAVLSDPEKRRIYDTYGTTEAPPPPPPGGYDFSGFDVEDFSEFFQELFGPGLFGGFGRRSRKGRDLRAELPLTLEEAFHGGERVVEVAGRRVSVRIPPGVREGSVIRVPGMGGQGNPPGDLLLVVRLLPHPVFRLEGQDLYATLDVPAPIAVVGGKVRAMTLEGPVEVTIPPRTQAGRKLRLRGKGFPGPAGRGDLYLEVRITIPERLTPEEEALWKKLAEAYYARA,failed
7,MAALSEKEAEAYLDARPRYPIDWFKKIAARTQDHKFAWDVGTGNGQAAIGLVEHYENVVATDINEAQLQRAIKHSRISYHHTPTTISEDEMVDLLGGENSVDLIVAAQAVHFFDLNVFYNVAKRVLRKEGGLIAVWVYNDIIISHEIDPIMKRLVDSTLPFRTPIMNLAFDGYKTLTFPFETIGMGSEGKPITLDIPHKLSLKGFIGFLRSWQPAMKAKEKGVELINEDLITKFEEAWGDETQVKDVFYKAHMIVGKIPEEKFESDQVLSNKGRLLLETEVGRNQKRPQPSDEGDRQSKKQNTSEDDACKDKPSSVFSTHYRF,failed
8,MAALSNLKQCPPFSTLPDLALRHNHIPELERYPQINLNSELLANPAGQRYYGGQSFVSVNEGVLKRIARSFFNGGFWKTLEEARSPETREQAPLIAQAGDLIAQFLGLATGLRILPHTQQLSAERIAQFVETRDWLNSDVRYLAWNQHFFCLAVAGVDDVVRIYTKSSSATTATVLKSPSQTQITCMAWRPLCASEIVIGCRQGLCFWEVDSTLHLGRTNAPSEIFKYPNNLPITSMQWNKDGTQLATASIGDRSIIIWQPDTGMMQPLKRLGPPGSLLKWSPDNDWLFAATVDRVFRVWNCHQQWTTERWVCGPGGYVQTACWSPCGRFLLFVSSAEPILYRLQFVQQSLLSSSADEKEILPIADLNACSIDANRTLVGGPAQQLAWDPHGNYLVVTFKATNCIAVFRTFIQKFDLQISAAYYLSGETAAEHPSFICFQPLYEDNDRSVLTIAWSSGRIQYYAFD,failed
9,MAAPLIPVLTAPTAAGKTALALRLAREYGLEIVAADAFTVYRGLDLGTAKPTPQERASVPHHLLDVVDVTQSYDVAQYAAQAEAAIVDILARGRLPLVVGGTGFYLSALSRGLPLTPPSDPKMRAALEAELQERGLDALLAEIEQANPAEAARMERNPRRVVRALEVYRAAGRFPGEFGYSPPAFQYQVFAFSPPAAEMEQRVQERTAAMLRAGWPQEAQWLAGQVPPEQEPRPTVWQALGYAEALAVAQGRLSLAGAEQAIALATRQYGKRQLTWMRRQLGAEVQSPDAAEAHLRAFLERSGAPSLEHHHHHH,failed
10,MAAPSGVPPMRVLEELGINLSPTGEVTETEAVAAEGAYYLEQVTITETSEDECEYEEIPDDNFSIPEGEEDLAKAIHMVDEQATDTHILEQQTILPSRHVMQEAIEDFLCNFLIKMGMTRTLDCFQAEWYELIQKTGSDLRTLGNVPDVYSQVMLLETENKNLKKDLKHFKQAAEKAKEDLLKTQKERDFHRMHHKRILQEKNKLIADLKGLKLHYASYEPTIRVLHEKHHALLKEKMLTSLERDRAVGKISGLQATLKNIDIGHIQVPVIKGSYETASILRELGDKAGHTYEKENSSEGPTQKNLREAREENGYKTKMKSERKDSEFPVDMQPDPNLTACTESLPTAKFDYRLNNIFRLHELPVSCICTHSVRDTMILCSEVRMWAGVGMDSGSISITPSGISRWISGCCDHPNRSWLLTSNGNRTLSLWELPEGKCTLTLQSLCQHHHFIWSCSWHICSRCAAQSSYRSTPKVWFLSVERCRYTLYGHTDSVNSIEFFPFSNTLLTASADKTLSVWDARTSHCQQSLYGHIRNIHIVKFTTPRLRGHILASCDSRGVIKLWDFRKLIPIVSIDVGPSPGNEVNFDPSGRVLAQASANGIIHLLDLKSGQIHKLVGHESEVHTVIFSHRAENLYSGGSDGTIRLWL,failed
11,MAASFAFLRDVRPYKTSWRVQVKVLHSWCQYTNMTGETLKLVLVNSQGVKIHASVKKDLVSKYVNNLPLNEWTFIETFALNHASGQFRPTGHLYKMSFVTGTQVIRCDS,not failed
12,MAASPKDPLDWAALLQLQMDEAFDFILRSEAGSVAECDLSPPVDIFETPDAFSVEFDLPGTDPADLSLKLCCNMLILEGVKRDDSREGGSYLCLERRFGRFCRTVEIPPTVDVSAVRADYRRGVLTVTFPRLSDRRKVMRDIPIIQGDN,failed
13,MADDDHIEAVLARLSRPQKLALVRGATDPEGTATGYLSGVEEAGIPPFRLVDGPLGIRAEGQRATAFPASIATAATFDPDLARQQGAAMGREAAALGQDALLAPGVNIIRVPHCGRNFEYLSEDPVHAGAVGAGLIDGIQSADVVATVKHFVANNQETHRTTVSTEVDERTLRELYLPPFRSAVDAGVGSVMTAYNRVNGTHMSDHGRLVGDVLKSEWGFNGYVVSDWYGLESTVGAANAGMDVEMPGVAAPGAAEAANSDTADDAEEFEWPDGIPDATRAGLFGDPLVEAIDSGEVPAERLDDMVRRVLGQMDRFGRLDGSRTAAEDGASDDQAGELDSQRHRDIAADVAARGTVLLDNDGVLPLADGADVAVIGPNIDEPKLGGGGSSETTPVHSVTPVAGIESRAEGAVTTAFGVPQIESVSLFDLLPFVGEDDDTDGTAADIAQQDPSLDDAVDAAAAADVAVVFVRDATTEARDRDSLALPGQQDDLVSAVAATNENTVVVVRSGGPVELPWREDVAAVLEQWYPGQADGDAAAAVLYGDRDPSGRLPVTFAPEGEYPTAGAERRYPGVDDEVHYDEDVFIGYRHFDDEDADPTYPFGHGHSYATFEYGDAEITGEWTVAVPVKNAADRPGREVIQAYVRPPSVDGVDRPRRELAGFEAVQLDADEQKTVALTLDDLAFSRYDPNSGWTVDTGTYTVEIGRSSRDIRTTVPVDR,failed
14,MADIRVTHEAQVTVISFPAVFQRLRETEVEQIASTFLAAMQGAQPRKVLIDLEGVEFFGSSFIELLVRGWKRIKEDQQGVFALCSVSPYCVEVLQVTHIDEVWPRYSTKQEALLAMAS,not failed
15,MADLFDGMKRRMDALIAERFGMKVNINGTDCIVVESDFLAELGPVEGNGKNVVVFSGNVIPRRGDRVVLRGSEFTVTRIRRFNGKPQLTLEENNGGKGA,not failed
16,MADRPHPYDRAPGGSSGSHDRTGVFRRNPDGGLPDRIDSLYRPEPAARSASDAAATRRLSRTSGTPPRRPTPRSRGRDSGGWERRERERRARRRKKAAVLVLVLLLLLPTVGYLWANSRLNRVAALVPYEGRPDDQPGTTYLIVGSDSREGLSDEDMEALRTGKAEGKRTDTIMVLYVPTEGRPAIISVPRDSYVEIPGIGANKINAAYAEALGGGPATLVRTFEQASGVRIDHYVEIGFAGFVDIVDAVGGVELCPEEAMEDPKAGLDIEAGCQVMDGPTALGYVRTRATPRADLDRIQRQREFFSALIQQATAPSTLFNPFRSIPLVLSGTSTFSVDEGDSLMDLAWLALAMRDSPATTAVPVGSTPTLDVGSVVLWDEARAEEMFAAMREGRPIPESAMQD,failed
17,MADSSNKKKAASHESKKSNMEIMFSGSDSLTKRERRKKKQLIARSVGFALIGIEVIALIIFLAALFKLNMIPAKYMAMLIGILLLITVYNVLSQFTKAHWVGKVLAVLLAVVMFVGSSYIGKANSVISNIAGVTTKTDTFSLVVLATDPATGVEATKNYTFGYNKINNKDMAESLIQEVNTTLGTNVKTRTYDNWTNIINALYNNEVKVIVFNESNRAMLEEQFTDFEEKTKVIYTKTYTTQIKENVVNKNTATESFTIYVSGNDDYGAISANGRSDVNIVATFNPKTRQVLMVSTPRDYWVPVDTLSTDSNGKAVTGYEKLTHAGNYGVDSSISTLESLYGVDVDYYVKVNFTGAVGVIDALGGITINSDVKFTNGEDAAPVAYNFVVGPNECDGEKALAFCRERQAFSDGDNQRGRNQMAAIEGMIDKATSTAILTQYNKVLDAVSGLIATNMPDSAISNLVKAQINDPTGWNIMSYSVSGTGATKTGQLFGIVGMSVIEPDYSTVNTAIELMSKVRNGEVFDIDQFLEDKALESGTTQAR,failed
18,MADSTAMADAIWFGGPIVTIDAHTPSARAVAVRDGRIMAVGREHAVLRYRGPDTRMHDLRGATLLPGFVDAHSHVSTVGLEHHHHHH,failed
19,MADTVEEPQLQNGAAPAESETEQNPIPEPQLQTEPKLTGEIPEIEADLTPEEVQSEVTDAKPEEVQSEVKPEEVKTVVTDAKPEEAQSEVKPEEVQSVVTDTKPDLTDVDLSPGGSEEIPIRSTEVEQESTTSVLKKDDDGNKTFTMRELLSELKSEEGDGTPHSSASPFSRESASQPAENNPAMDLINRIQVNDEEGRSRQRVLAFAARKYASAIERNPDDHDALYNWALILQESADNVSPDSVSPSKDDLLEEACKKYDEATRLCPTLYDAYYNWAIAISDRAKIRGRTKEAEELWEQAADNYEKAVQLNWNSSQALNNWGLVLQELSQIVPAREKEKVVRTAISKFRAAIRLQFDFHRAIYNLGTVLYGLAEDTLRTGGSGNGKDMPPGELYSQSAIYIAAAHSLKPSYSVYSSALRLVRSMLPLPHLKVGYLTAPPVGNSLAPHSDWKRTEFELNHERLLQVLKPEPREMGRNLSGKAETMSTNVERKTVKVNITEIVSVTPCADLTLPPGAGLCIDTIHGPVFLVADSWESLDGWLDAIRLVYTIYARGKSDVLAGIITG,failed
